B1: Nme1Cas9-Nme2Cas9PID chimera (Nme1Cas9 with its PID replaced by that of Nme2Cas9) (protein)
chain: MAAFKPNSINYILGLDIGIASVGWAMVEIDEEENPIRLIDLGVRVFERAEVPKTGDSLAMARRLARSVRRLTRRRAHRLLRTRRLLKREGVLQAANFDENGLIKSLPNTPWQLRAAALDRKLTPLEWSAVLLHLIKHRGYLSQRKNEGETADKELGALLKGVAGNAHALQTGDFRTPAELALNKFEKESGHIRNQRSDYSHTFSRKDLQAELILLFEKQKEFGNPHVSGGLKEGIETLLMTQRPALSGDAVQKMLGHCTFEPAEPKAAKNTYTAERFIWLTKLNNLRILEQGSERPLTDTERATLMDEPYRKSKLTYAQARKLLGLEDTAFFKGLRYGKDNAEASTLMEMKAYHAISRALEKEGLKDKKSPLNLSPELQDEIGTAFSLFKTDEDITGRLKDRIQPEILEALLKHISFDKFVQISLKALRRIVPLMEQGKRYDEACAEIYGDHYGKKNTEEKIYLPPIPADEIRNPVVLRALSQARKVINGVVRRYGSPARIHIETAREVGKSFKDRKEIEKRQEENRKDREKAAAKFREYFPNFVGEPKSKDILKLRLYEQQHGKCLYSGKEINLGRLNEKGYVEIDHALPFSRTWDDSFNNKVLVLGSENQNKGNQTPYEYFNGKDNSREWQEFKARVETSRFPRSKKQRILLQKFDEDGFKERNLNDTRYVNRFLCQFVADRMRLTGKGKKRVFASNGQITNLLRGFWGLRKVRAENDRHHALDAVVVACSTVAMQQKITRFVRYKEMNAFDGKTIDKETGEVLHQKTHFPQPWEFFAQEVMIRVFGKPDGKPEFEEADTLEKLRTLLAEKLSSRPEAVHEYVTPLFVSRAPNRKMSGAHKDTLRSAKRFVKHNEKISVKRVWLTEIKLADLENMVNYKNGREIELYEALKARLEAYGGNAKQAFDPKDNPFYKKGGQLVKAVRVEKTQESGVLLNKKNAYTIADNGDMVRVDVFCKVDKKGKNQYFIVPIYAWQVAENILPDIDCKGYRIDDSYTFCFSLHKYDLIAFQKDEKSKVEFAYYINCDSSNGRFYLAWHDKGSKEQQFRISTQNLVLIQKYQVNELGKEIRPCRLKKRPPVR
B2: Recombinant Nme2Cas9 (Cas9 of Neisseria meningitidis strain Del1444), purified from E. coli (protein)
chain: PKKKRKVNAMAAFKPNPINYILGLDIGIASVGWAMVEIDEEENPIRLIDLGVRVFERAEVPKTGDSLAMARRLARSVRRLTRRRAHRLLRARRLLKREGVLQAADFDENGLIKSLPNTPWQLRAAALDRKLTPLEWSAVLLHLIKHRGYLSQRKNEGETADKELGALLKGVANNAHALQTGDFRTPAELALNKFEKESGHIRNQRGDYSHTFSRKDLQAELILLFEKQKEFGNPHVSGGLKEGIETLLMTQRPALSGDAVQKMLGHCTFEPAEPKAAKNTYTAERFIWLTKLNNLRILEQGSERPLTDTERATLMDEPYRKSKLTYAQARKLLGLEDTAFFKGLRYGKDNAEASTLMEMKAYHAISRALEKEGLKDKKSPLNLSSELQDEIGTAFSLFKTDEDITGRLKDRVQPEILEALLKHISFDKFVQISLKALRRIVPLMEQGKRYDEACAEIYGDHYGKKNTEEKIYLPPIPADEIRNPVVLRALSQARKVINGVVRRYGSPARIHIETAREVGKSFKDRKEIEKRQEENRKDREKAAAKFREYFPNFVGEPKSKDILKLRLYEQQHGKCLYSGKEINLVRLNEKGYVEIDHALPFSRTWDDSFNNKVLVLGSENQNKGNQTPYEYFNGKDNSREWQEFKARVETSRFPRSKKQRILLQKFDEDGFKECNLNDTRYVNRFLCQFVADHILLTGKGKRRVFASNGQITNLLRGFWGLRKVRAENDRHHALDAVVVACSTVAMQQKITRFVRYKEMNAFDGKTIDKETGKVLHQKTHFPQPWEFFAQEVMIRVFGKPDGKPEFEEADTPEKLRTLLAEKLSSRPEAVHEYVTPLFVSRAPNRKMSGAHKDTLRSAKRFVKHNEKISVKRVWLTEIKLADLENMVNYKNGREIELYEALKARLEAYGGNAKQAFDPKDNPFYKKGGQLVKAVRVEKTQESGVLLNKKNAYTIADNGDMVRVDVFCKVDKKGKNQYFIVPIYAWQVAENILPDIDCKGYRIDDSYTFCFSLHKYDLIAFQKDEKSKVEFAYYINCDSSNGRFYLAWHDKGSKEQQFRISTQNLVLIQKYQVNELGKEIRPCRLKKRPPVRGGGGSGGGGSGGGGSPAAKKKKLDGGGSKRPAATKKAGQAKKKK
B3: Nme1Cas9 (Cas9 of Neisseria meningitidis strain 8013), recombinant, purified from E. coli (protein)
chain: MAAFKPNSINYILGLDIGIASVGWAMVEIDEEENPIRLIDLGVRVFERAEVPKTGDSLAMARRLARSVRRLTRRRAHRLLRTRRLLKREGVLQAANFDENGLIKSLPNTPWQLRAAALDRKLTPLEWSAVLLHLIKHRGYLSQRKNEGETADKELGALLKGVAGNAHALQTGDFRTPAELALNKFEKESGHIRNQRSDYSHTFSRKDLQAELILLFEKQKEFGNPHVSGGLKEGIETLLMTQRPALSGDAVQKMLGHCTFEPAEPKAAKNTYTAERFIWLTKLNNLRILEQGSERPLTDTERATLMDEPYRKSKLTYAQARKLLGLEDTAFFKGLRYGKDNAEASTLMEMKAYHAISRALEKEGLKDKKSPLNLSPELQDEIGTAFSLFKTDEDITGRLKDRIQPEILEALLKHISFDKFVQISLKALRRIVPLMEQGKRYDEACAEIYGDHYGKKNTEEKIYLPPIPADEIRNPVVLRALSQARKVINGVVRRYGSPARIHIETAREVGKSFKDRKEIEKRQEENRKDREKAAAKFREYFPNFVGEPKSKDILKLRLYEQQHGKCLYSGKEINLGRLNEKGYVEIDHALPFSRTWDDSFNNKVLVLGSENQNKGNQTPYEYFNGKDNSREWQEFKARVETSRFPRSKKQRILLQKFDEDGFKERNLNDTRYVNRFLCQFVADRMRLTGKGKKRVFASNGQITNLLRGFWGLRKVRAENDRHHALDAVVVACSTVAMQQKITRFVRYKEMNAFDGKTIDKETGEVLHQKTHFPQPWEFFAQEVMIRVFGKPDGKPEFEEADTLEKLRTLLAEKLSSRPEAVHEYVTPLFVSRAPNRKMSGQGHMETVKSAKRLDEGVSVLRVPLTQLKLKDLEKMVNREREPKLYEALKARLEAHKDDPAKAFAEPFYKYDKAGNRTQQVKAVRVEQVQKTGVWVRNHNGIADNATMVRVDVFEKGDKYYLVPIYSWQVAKGILPDRAVVQGKDEEDWQLIDDSFNFKFSLHPNDLVEVITKKARMFGYFASCHRGTGNINIRIHDLDHKIGKNGILEGIGVKTALSFQKYQIDELGKEIRPCRLKKRPPVR

Legend:
[1] = target: AcrIIC5Smu
[2] = target: AcrIIC1Nme
[3] = target: AcrIIC2Nme
[4] = target: AcrIIC3Nme
[5] = target: AcrIIC4Hpa
[6] = target: AcrE2

Protein | in vitro DNA cleavage by the Nme1Cas9-Nme2Cas9PID chimera in the presence of Acr (10 uM Cas9-sgRNA + 100 uM Acr) [1] | in vitro DNA cleavage by Cas9 in the presence of Acr (10:1 Acr:Cas9 molar ratio) [2] | in vitro DNA cleavage by Cas9 in the presence of Acr (10:1 Acr:Cas9 molar ratio) [3] | in vitro DNA cleavage by Cas9 in the presence of Acr (10:1 Acr:Cas9 molar ratio) [4] | in vitro DNA cleavage by Cas9 in the presence of Acr (10:1 Acr:Cas9 molar ratio) [5] | in vitro DNA cleavage by Cas9 in the presence of Acr (10:1 Acr:Cas9 molar ratio) [1] | in vitro DNA cleavage by Cas9 in the presence of Acr (10:1 Acr:Cas9 molar ratio) [6]
B1 | No inhibition was observed by AcrIIC5Smu on this protein chimera |  |  |  |  |  | 
B2 |  | completely inhibited Nme2Cas9 | completely inhibited Nme2Cas9 | completely inhibited Nme2Cas9 | completely inhibited Nme2Cas9 | did not inhibit Nme2Cas9 in vitro even at a 10-fold molar excess | 
B3 |  | all 5 families inhibited Nme1Cas9 | all 5 families inhibited Nme1Cas9 | all 5 families inhibited Nme1Cas9 | all 5 families inhibited Nme1Cas9 | all 5 families inhibited Nme1Cas9 | AcrE2 failed to do so

— patent publication US20220290113
